# Measurements: patent US20220064648, “NOVEL X-[…] FOR THE USE IN DETECTION OF SNAP25” (Galderma Holding S.A., published 2022)
# T1: SNAP25 Peptide 1 (PEP1) (Homo sapiens, UniProt P60880 SEQ:1-35)
# T1 chain: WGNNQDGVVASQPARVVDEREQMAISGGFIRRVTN
# T2: SNAP25 Peptide 3 (PEP3; only a fragment of it is a SNAP25 subsequence) (Homo sapiens, UniProt P60880 SEQ:1-33)
# T2 chain: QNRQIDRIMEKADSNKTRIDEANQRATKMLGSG
# B1: PEP 1.14 (ssDNA)
# DNA: TTTTTAAGCCCACCTGACTGTGGTGGGCACAGTTCGCCATCGTGGGCCCATG
# modifications: W indole, X amine, Y phenol modified dU [15,19,34 (Y phenol dU); 24,40 (W indole dU)]
# B2: PEP 1.02 (ssDNA)
# DNA: TTTTTAACACGACCATCCTGTGCCTCACGAACTCATTGCCCGTCGTGCCATG
# modifications: W indole, X amine, Y phenol modified dU [16,19,25,36,43,46]
# B3: PEP 1.01 (ssDNA)
# DNA: TTTTTAACACGACGCGACTGTGAGAGGCACAGTTTGGGGGCGTGGGCCCATG
# modifications: W indole, X amine, Y phenol modified dU [19,34,35]
# B4: PEP 1.03 (ssDNA)
# DNA: TTTTTAACACGACGGGGGTTCGGGCAGCGAACAGATGGGCGGTGGGCCCATG
# modifications: W indole, X amine, Y phenol modified dU [19,20,36]
# B5: PEP 1.19 (ssDNA)
# DNA: TTTTTAACACGACATAGCTGTGACAGGCACAGGTCATGGGAGTCGTGCCATG
# modifications: W indole, X amine, Y phenol modified dU [15,19,34,43,46]
# B6: PEP 1.21 (ssDNA)
# DNA: TTTTTAAGCCCACCGGTCTGTGGTTCCCACAGTGCATGCGAGTGGGCCCATG
# modifications: W indole, X amine, Y phenol modified dU [17,19,24,25]
# B7: PEP 1.08 (ssDNA)
# DNA: TTTTTAACACGACCCCGGTTCGACTCCCACAGAGCGGGGGTGTCGTGCCATG
# modifications: W indole, X amine, Y phenol modified dU [19 (W indole dU); 20,46 (Y phenol dU); 25,43 (X amine dU)]
# B8: PEP 1.12 (ssDNA)
# DNA: TTTTTAAGCCCACAAAAGTTCGATCAGCACAGGTCGCCAAAGTCGTGCCATG
# modifications: W indole, X amine, Y phenol modified dU [19,24 (W indole dU); 20,34,46 (Y phenol dU); 43 (X amine dU)]
# B9: PEP 1.17 (ssDNA)
# DNA: TTTTTAACACGACGGCGGTTCGCCTCCCGAACGTTGTTGGAGTCGTGCCATG
# modifications: W indole, X amine, Y phenol modified dU [19,38 (W indole dU); 20,34,35,46 (Y phenol dU); 25,43 (X amine dU)]
# B10: PEP 1.20 (ssDNA)
# DNA: TTTTTAACACGACGAACCTGTGCTCAACACAGAACATCACAGTGGGCCCATG
# modifications: W indole, X amine, Y phenol modified dU [19,24]
# B11: PEP 1.24 (ssDNA)
# DNA: TTTTTAACACGACCGCCCTGTGGGCAACACAGGGATCTGCAGTCGTGCCATG
# modifications: W indole, X amine, Y phenol modified dU [19,36,38,43,46]
# B12: PEP 1.15 (ssDNA)
# DNA: TTTTTAAGCCCACCTCTCTGTGGGAGACACAGTTATTGCAGGTGGGCCCATG
# modifications: W indole, X amine, Y phenol modified dU [15,19,34 (Y phenol dU); 17,36 (W indole dU)]
# B13: PEP 1.18 (ssDNA)
# DNA: TTTTTAACACGACCACCCTGTGCAAGGCGAACTCCGTCAAAGTGGGCCCATG
# modifications: W indole, X amine, Y phenol modified dU [19]
# B14: PEP 1.23 (ssDNA)
# DNA: TTTTTAAGCCCACTTCACTGTGGCTCGCACAGGCCGATGGGGTCGTGCCATG
# modifications: W indole, X amine, Y phenol modified dU [14,15,19,25,38,43,46]
# B15: PEP 1.07 (ssDNA)
# DNA: TTTTTAACACGACTCAACTGTGATTCCCACAGACTGGGCTCGTGGGCCCATG
# modifications: W indole, X amine, Y phenol modified dU [14,25 (X amine dU); 19,35 (Y phenol dU); 24,40 (W indole dU)]
# B16: PEP 1.10 (ssDNA)
# DNA: TTTTTAACACGACGGGCGTTCGCTGGTCGAACACCAATGCTGTGGGCCCATG
# modifications: W indole, X amine, Y phenol modified dU [19,24,38 (W indole dU); 20 (Y phenol dU); 27 (X amine dU)]
# B17: PEP 1.09 (ssDNA)
# DNA: TTTTTAACACGACTTATCTGTGTCAGTCGAACGTCGCGGAGGTGGGCCCATG
# modifications: W indole, X amine, Y phenol modified dU [14,27 (X amine dU); 15,19,34 (Y phenol dU); 17,23 (W indole dU)]
# B18: PEP 1.05 (ssDNA)
# DNA: TTTTTAAGCCCACCAAGCTGTGGCGGGCACAGGGCAGCATCGTCGTGCCATG
# modifications: W indole, X amine, Y phenol modified dU [19,40,43,46]
# B19: PEP 1.06 (ssDNA)
# DNA: TTTTTAAGCCCACCTCAGTTCGCTCATCGAACGACGATGCTGTGGGCCCATG
# modifications: W indole, X amine, Y phenol modified dU [15,20 (Y phenol dU); 19,24,38 (W indole dU); 27 (X amine dU)]
# B20: PEP 1.04 (ssDNA)
# DNA: TTTTTAACACGACGCTCCTGTGACAGCCGAACATCATTGGTGTCGTGCCATG
# modifications: W indole, X amine, Y phenol modified dU [16,19,34,38,43,46]
# B21: PEP 1.11 (ssDNA)
# DNA: TTTTTAACACGACGCCAGTTCGAAGGTCACAGTTATTTGGCGTCGTGCCATG
# modifications: W indole, X amine, Y phenol modified dU [19,36,38 (W indole dU); 20,34,46 (Y phenol dU); 27,43 (X amine dU)]
# B22: PEP 1.16 (ssDNA)
# DNA: TTTTTAACACGACGGGCCTGTGAACACCGAACTGATGGGTCGTGGGCCCATG
# modifications: W indole, X amine, Y phenol modified dU [19 (Y phenol dU); 36,40 (W indole dU)]
# B23: PEP 1.22 (ssDNA)
# DNA: TTTTTAACACGACTTGGGTTCGGAAGGCGAACCGCAGCAATGTGGGCCCATG
# modifications: W indole, X amine, Y phenol modified dU [14,15,19,20]
# B24: PEP 3.05 (ssDNA)
# DNA: TTTTTAACACGACGACACTGTGTTGGGCGAACTCCGCTGGGGTGGGCCCATG
# modifications: W indole, X amine, Y phenol modified dU [19Y,23W,24W,38W]
# B25: PEP 3.01 (ssDNA)
# DNA: TTTTTAACACGACACCACTGTGGTTCTCACAGCTATGTGTTGTGGGCCCATG
# modifications: W indole, X amine, Y phenol modified dU [19Y,24W,25X,27X,34Y,36W,38W,40W]
# B26: PEP 3.15 (ssDNA)
# DNA: TTTTTAACACGACTGCACTGTGAATCTCGAACGCATCGGGAGTCGTGCCATG
# modifications: W indole, X amine, Y phenol modified dU [14, 25, 27, 43 (amine dU), 19, 46 (phenol dU), 36 (indole dU)]
# B27: PEP 3.20 (ssDNA)
# DNA: TTTTTAAGCCCACAGTTCTGTGTTCATCACAGAGCAACACTGTGGGCCCATG
# modifications: W indole, X amine, Y phenol modified dU [16, 17, 23, 24 (indole dU), 19 (phenol dU), 27 (amine dU)]
# B28: PEP 3.18 (ssDNA)
# DNA: TTTTTAACACGACACGGGTTCGCACATCACAGAGATACACTGTCGTGCCATG
# modifications: W indole, X amine, Y phenol modified dU [19, 36 (indole dU), 20, 46 (phenol dU), 27, 43 (amine dU)]
# B29: PEP 3.08 (ssDNA)
# DNA: TTTTTAACACGACGTCACTGTGGTTCTCGAACGCCGCGCTTGTCGTGCCATG
# modifications: W indole, X amine, Y phenol modified dU [15Y,19Y,24W,25X,27X,40W,43X,46Y]
# B30: PEP 3.10 (ssDNA)
# DNA: TTTTTAACACGACAGCACTGTGCACAGCACAGCTCAAGGGTGTGGGCCCATG
# modifications: W indole, X amine, Y phenol modified dU [19Y,34Y]
# B31: PEP 3.17 (ssDNA)
# DNA: TTTTTAAGCCCACTAGAGTTCGGCCATCACAGTCCAACACTGTGGGCCCATG
# modifications: W indole, X amine, Y phenol modified dU [14, 27 (amine dU), 19 (indole dU), 20 (phenol dU)]
# B32: PEP 3.03 (ssDNA)
# DNA: TTTTTAACACGACAATGGTTCGGGGGGCGAACGTCACTGTGGTCGTGCCATG
# modifications: W indole, X amine, Y phenol modified dU [16W,19W,20Y,34Y,38W,40W,43X,46Y]
# B33: PEP 3.23 (ssDNA)
# DNA: TTTTTAAGCCCACCTCACTGTGCAAGTCACAGGTCGGCACCGTGGGCCCATG
# modifications: W indole, X amine, Y phenol modified dU [15, 19, 34 (phenol dU), 27 (amine dU)]
# B34: PEP 3.07 (ssDNA)
# DNA: TTTTTAAGCCCACGACACTGTGGCCAACACAGTACATGCATGTGGGCCCATG
# modifications: W indole, X amine, Y phenol modified dU [19Y]
# B35: PEP 3.14 (ssDNA)
# DNA: TTTTTAACACGACACCACTGTGCCCACCACAGTTCACTGAAGTGGGCCCATG
# modifications: W indole, X amine, Y phenol modified dU [19, 34 (phenol dU), 38 (indole dU)]
# B36: PEP 3.19 (ssDNA)
# DNA: TTTTTAAGCCCACGCCACTGTGACCATCGAACCACACGGCCGTCGTGCCATG
# modifications: W indole, X amine, Y phenol modified dU [19, 46 (phenol dU), 27, 43 (amine dU)]
# B37: PEP 3.04 (ssDNA)
# DNA: TTTTTAAGCCCACGGCACTGTGCTCAGCACAGCTCGGGGTGGTGGGCCCATG
# modifications: W indole, X amine, Y phenol modified dU [19Y,24W,34Y,40W]
# B38: PEP 3.22 (ssDNA)
# DNA: TTTTTAACACGACATCACTGTGGAAGACACAGGACGTGCGTGTCGTGCCATG
# modifications: W indole, X amine, Y phenol modified dU [15, 19, 46 (phenol dU), 43 (amine dU)]
# B39: PEP 3.06 (ssDNA)
# DNA: TTTTTAACACGACCGCACTGTGATAGGCGAACGGTGTGGAGGTCGTGCCATG
# modifications: W indole, X amine, Y phenol modified dU [19Y,24W,35Y,43X,46Y]
# B40: PEP 3.02 (ssDNA)
# DNA: TTTTTAACACGACAGCACTGTGGTTCGCGAACCTCAAGCTCGTCGTGCCATG
# modifications: W indole, X amine, Y phenol modified dU [19Y,24W,25X,34Y,40W,43X,46Y]
# B41: PEP 3.13 (ssDNA)
# DNA: TTTTTAACACGACATCACTGTGCACAGCGAACTGCGTTGGCGTCGTGCCATG
# modifications: W indole, X amine, Y phenol modified dU [15, 19, 46 (phenol dU), 38 (indole dU), 43 (amine dU)]
# B42: PEP 3.24 (ssDNA)
# DNA: TTTTTAAGCCCACCAGGGTTCGGGAGCCGAACGCCAGCACTGTCGTGCCATG
# modifications: W indole, X amine, Y phenol modified dU [19,20,43,46]
# B43: PEP 3.21 (ssDNA)
# DNA: TTTTTAAGCCCACTCCGGTTCGTCCATCACAGCCCACTGTGGTCGTGCCATG
# modifications: W indole, X amine, Y phenol modified dU [14, 27, 43 (amine dU), 19, 23, 38, 40 (indole dU), 20, 46 (phenol dU)]
# B44: PEP 3.16 (ssDNA)
# DNA: TTTTTAAGCCCACATCACTGTGCGAGCCACAGATCAGGCAGGTGGGCCCATG
# modifications: W indole, X amine, Y phenol modified dU [15, 19, 34 (phenol dU)]
# B45: PEP 3.11 (ssDNA)
# DNA: TTTTTAAGCCCACTGTCGTTCGGCGGGCGAACGACAGCATGGTCGTGCCATG
# modifications: W indole, X amine, Y phenol modified dU [14X,16W,19W,20Y,40W,43X,46Y]
# B46: PEP 3.12 (ssDNA)
# DNA: TTTTTAACACGACTATCCTGTGAGCAACACAGGGCGGCACTGTGGGCCCATG
# modifications: W indole, X amine, Y phenol modified dU [14 (amine dU), 16 (indole dU), 19 (phenol dU)]
# Target: T1, SNAP25 Peptide 1 (PEP1)
# Experiment: ELONA
# Source text: (§1) The data in Table 2 was collected by running direct ELISA assays on the 96 X-aptamers, elucidating their ability to bind SNAP25, SNAP25 fragments (PEP1, PEP2, PEP3, and PEP4), and a negative control. The X-aptamers were biotinylated and immobilized onto streptavidin-coated plates and were utilized as detection molecules. Higher numbers represent strong binding. The negative control peptide is a random peptide to measure the amount of binding that occurs to a random amino acid sequence.
row,Binder,binding signal [ELISA signal]
1,B1,241
2,B2,742
3,B3,2240
4,B4,677
5,B5,200
6,B6,188
7,B7,357
8,B8,289
9,B9,200
10,B10,188
11,B11,160
12,B12,220
13,B13,200
14,B14,168
15,B15,429
16,B16,293
17,B17,337
18,B18,641
19,B19,477
20,B20,645
21,B21,293
22,B22,212
23,B23,184

# Target: T2, SNAP25 Peptide 3 (PEP3; only a fragment …)
# Experiment: ELONA
# Source text: as §1
row,Binder,binding signal [ELISA signal]
1,B24,272
2,B25,503
3,B26,114
4,B27,97
5,B28,105
6,B29,207
7,B30,139
8,B31,110
9,B32,338
10,B33,95
11,B34,219
12,B35,114
13,B36,102
14,B37,276
15,B38,96
16,B39,230
17,B40,406
18,B41,115
19,B42,81
20,B43,96
21,B44,111
22,B45,137
23,B46,118
